Measurements taken from patent US20030191048A1.

Target: c-Kit (CD 117) receptor tyrosine kinase on DMVEC (human) (UniProt P10721)
Test: cell-based or functional assay

Sequence of c-Kit (CD 117) receptor tyrosine kinase on DMVEC (human) (P10721 26-976): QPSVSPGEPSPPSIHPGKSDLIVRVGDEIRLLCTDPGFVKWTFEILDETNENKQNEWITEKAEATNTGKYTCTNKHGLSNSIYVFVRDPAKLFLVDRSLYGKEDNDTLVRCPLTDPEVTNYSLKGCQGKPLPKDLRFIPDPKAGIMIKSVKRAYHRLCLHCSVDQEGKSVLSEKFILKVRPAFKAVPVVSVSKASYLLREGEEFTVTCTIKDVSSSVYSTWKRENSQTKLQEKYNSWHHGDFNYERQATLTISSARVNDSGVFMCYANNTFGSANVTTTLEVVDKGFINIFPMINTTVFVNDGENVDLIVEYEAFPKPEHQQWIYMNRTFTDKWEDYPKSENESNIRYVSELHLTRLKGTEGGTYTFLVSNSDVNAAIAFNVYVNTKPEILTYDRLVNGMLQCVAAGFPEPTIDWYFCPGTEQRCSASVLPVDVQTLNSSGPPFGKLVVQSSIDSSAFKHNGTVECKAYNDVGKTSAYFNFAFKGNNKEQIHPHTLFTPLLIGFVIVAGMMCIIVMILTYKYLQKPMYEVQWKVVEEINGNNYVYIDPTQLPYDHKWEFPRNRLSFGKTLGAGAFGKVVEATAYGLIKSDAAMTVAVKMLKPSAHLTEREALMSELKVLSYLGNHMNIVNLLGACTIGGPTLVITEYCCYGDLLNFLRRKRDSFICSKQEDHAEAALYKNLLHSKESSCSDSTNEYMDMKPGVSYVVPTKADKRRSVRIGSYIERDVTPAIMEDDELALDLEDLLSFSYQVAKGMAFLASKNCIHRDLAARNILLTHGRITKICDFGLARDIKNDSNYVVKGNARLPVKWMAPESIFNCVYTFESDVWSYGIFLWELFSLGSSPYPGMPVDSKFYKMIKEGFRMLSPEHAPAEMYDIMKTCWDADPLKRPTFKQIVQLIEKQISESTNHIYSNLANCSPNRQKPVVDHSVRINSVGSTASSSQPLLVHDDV

SCF dose giving maximal proliferation (XTT-based assay), mock- and KSHV-infected DMVEC: 50 to 100 ng/mL | proliferation (XTT-based assay), increase over basal proliferation, KSHV-infected DMVEC: < 85% | proliferation (XTT-based assay), increase over basal proliferation, mock-infected DMVEC: < 40%
Substance: recombinant stem cell factor (SCF) (from UniProt P21583 26-189) (ligand)
